Data: patent publication US6641809
Values belong to the substance of their own block, whether it stands above or below them.

How the values were obtained:
CD28 receptor (human) [1] = target: CD28 receptor (human) (UniProt P10747); assay: cell-based or functional assay
CD28 receptor (human) [2] = target: CD28 receptor (human) (UniProt P10747); assay: adhesion of B7-transfected COS cells to CD28+ CHO cells, EDTA omitted
CD28 receptor (human) [3] = target: CD28 receptor (human) (UniProt P10747); assay: adhesion of T51 cells to CD28+ CHO cells, mAb 9.3 at 10 µg/ml without EDTA
CD28 receptor (human) [4] = target: CD28 receptor (human) (UniProt P10747); assay: inhibition of adhesion of PM lymphoblastoid cells to CD28+ CHO monolayers
CD28 receptor (human) [5] = target: CD28 receptor (human) (UniProt P10747); assay: adhesion of T51 cells to CD28+ CHO cells, mAb 9.3 at 10 µg/ml plus EDTA
B7 antigen (human) [6] = target: B7 antigen (human) (UniProt P33681); assay: flow cytometry, direct staining of HL60 cells (AML, negative for CD28 adhesion; presence of B7 not shown)
B7 antigen (human) [7] = target: B7 antigen (human) (UniProt P33681); assay: flow cytometry, Jijoye cells preincubated with unlabeled BB-1
B7 antigen (human) [8] = target: B7 antigen (human) (UniProt P33681); assay: flow cytometry, CEM cells preincubated with unlabeled BB-1
B7 antigen (human) [9] = target: B7 antigen (human) (UniProt P33681); assay: flow cytometry, HL60 cells preincubated with unlabeled BB-1
B7 antigen (human) [10] = target: B7 antigen (human) (UniProt P33681); assay: flow cytometry, direct staining of HSB2 cells (T-ALL, negative for CD28 adhesion; presence of B7 not shown)
B7 antigen (human) [11] = target: B7 antigen (human) (UniProt P33681); assay: flow cytometry, direct staining of Namalwa cells (BL, negative for CD28 adhesion; presence of B7 not shown)
B7 antigen (human) [12] = target: B7 antigen (human) (UniProt P33681); assay: flow cytometry, direct staining of T51 cells (B-LCL, positive for CD28 adhesion)
B7 antigen (human) [13] = target: B7 antigen (human) (UniProt P33681); assay: flow cytometry, direct staining of 5E1 cells (B-LCL, positive for CD28 adhesion)
B7 antigen (human) [14] = target: B7 antigen (human) (UniProt P33681); assay: flow cytometry, Raji cells; (- cold) minus (+ cold)
B7 antigen (human) [15] = target: B7 antigen (human) (UniProt P33681); assay: flow cytometry, 1A2 cells preincubated with unlabeled BB-1
B7 antigen (human) [16] = target: B7 antigen (human) (UniProt P33681); assay: flow cytometry, Jijoye cells; (- cold) minus (+ cold)
B7 antigen (human) [17] = target: B7 antigen (human) (UniProt P33681); assay: flow cytometry, 5E1 cells; (- cold) minus (+ cold)
B7 antigen (human) [18] = target: B7 antigen (human) (UniProt P33681); assay: flow cytometry, direct staining of Raji cells (BL, positive for CD28 adhesion)
B7 antigen (human) [19] = target: B7 antigen (human) (UniProt P33681); assay: flow cytometry, 5E1 cells preincubated with unlabeled BB-1
B7 antigen (human) [20] = target: B7 antigen (human) (UniProt P33681); assay: adhesion of T51 cells to CD28+ CHO cells, screen of a mAb panel
B7 antigen (human) [21] = target: B7 antigen (human) (UniProt P33681); assay: flow cytometry, HSB2 cells preincubated with unlabeled BB-1
B7 antigen (human) [22] = target: B7 antigen (human) (UniProt P33681); assay: flow cytometry, direct staining of Jijoye cells (BL, positive for CD28 adhesion)
B7 antigen (human) [23] = target: B7 antigen (human) (UniProt P33681); assay: flow cytometry, Namalwa cells (negative for CD28 adhesion); (- cold) minus (+ cold)
B7 antigen (human) [24] = target: B7 antigen (human) (UniProt P33681); assay: cell-based or functional assay
B7 antigen (human) [25] = target: B7 antigen (human) (UniProt P33681); assay: flow cytometry, THP-1 cells preincubated with unlabeled BB-1
B7 antigen (human) [26] = target: B7 antigen (human) (UniProt P33681); assay: flow cytometry, T51 cells preincubated with unlabeled BB-1
B7 antigen (human) [27] = target: B7 antigen (human) (UniProt P33681); assay: flow cytometry, Raji cells preincubated with unlabeled BB-1
B7 antigen (human) [28] = target: B7 antigen (human) (UniProt P33681); assay: flow cytometry, T51 cells; (- cold) minus (+ cold)
B7 antigen (human) [29] = target: B7 antigen (human) (UniProt P33681); assay: flow cytometry, Daudi cells; (- cold) minus (+ cold)
B7 antigen (human) [30] = target: B7 antigen (human) (UniProt P33681); assay: flow cytometry, direct staining of 1A2 cells (B-LCL, negative for CD28 adhesion; presence of B7 not shown)
B7 antigen (human) [31] = target: B7 antigen (human) (UniProt P33681); assay: adhesion of Jijoye cells to CD28+ CHO cells in 10 mM EDTA, BB-1 below 1 µg/ml
B7 antigen (human) [32] = target: B7 antigen (human) (UniProt P33681); assay: flow cytometry, Daudi cells preincubated with unlabeled BB-1
B7 antigen (human) [33] = target: B7 antigen (human) (UniProt P33681); assay: flow cytometry, direct staining of Daudi cells (BL, positive for CD28 adhesion)
B7 antigen (human) [34] = target: B7 antigen (human) (UniProt P33681); assay: flow cytometry, direct staining of THP-1 cells (AML, negative for CD28 adhesion; presence of B7 not shown)

B7 antigen (human), sequence (P33681 35-288): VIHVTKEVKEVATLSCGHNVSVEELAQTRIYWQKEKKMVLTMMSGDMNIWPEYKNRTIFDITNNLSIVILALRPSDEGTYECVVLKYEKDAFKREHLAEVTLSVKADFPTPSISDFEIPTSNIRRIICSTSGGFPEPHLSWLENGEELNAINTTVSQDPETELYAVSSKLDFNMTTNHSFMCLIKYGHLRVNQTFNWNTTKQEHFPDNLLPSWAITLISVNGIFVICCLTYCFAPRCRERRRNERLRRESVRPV

[3H]-T incorporation, PBL, + Anti-CD3, B7Ig (immob.), Exp. 1 (CD28 receptor (human) [1]): 174000 cpm
[3H]-T incorporation, PBL, - Anti-CD3, B7Ig (immob.), Exp. 1 (CD28 receptor (human) [1]): 100 cpm
Substance: B7Ig fusion protein (from UniProt P33681 35-215; P01857 99-330) (Fc fusion)

percent of adhesion blocked (CD28 receptor (human) [2]): 40%
percent reduction of adhesion (CD28 receptor (human) [3]): 62%
[3H]-T incorporation, PBL, + Anti-CD3, mAb 9.3 (immob.), Exp. 1 (CD28 receptor (human) [1]): 137000 cpm
[3H]-T incorporation, PBL, + Anti-CD3, mAb 9.3 (soln.), Exp. 1 (CD28 receptor (human) [1]): 156000 cpm
[3H]-T incorporation, PBL, + Anti-CD3, mAb 9.3 (soln.), Exp. 2 (CD28 receptor (human) [1]): 75800 cpm
[3H]-T incorporation, PBL, - Anti-CD3, mAb 9.3 (immob.), Exp. 1 (CD28 receptor (human) [1]): 100 cpm
[3H]-T incorporation, PBL, - Anti-CD3, mAb 9.3 (soln.), Exp. 1 (CD28 receptor (human) [1]): 300 cpm
[3H]-T incorporation, PBL, - Anti-CD3, mAb 9.3 (soln.), Exp. 2 (CD28 receptor (human) [1]): 400 cpm
IC50 (CD28 receptor (human) [4]): 10 nM
percent reduction of adhesion (CD28 receptor (human) [5]): 93%
Substance: Monoclonal antibody (mAb) 9.3 (anti-CD28)

[3H]-T incorporation, PHA blasts stimulated with B7+ CHO (40:1), with 9.3 Fab at 10 µg/ml (CD28 receptor (human) [1]): 132000 cpm
Substance: mAb 9.3 (Fab fragments)

mean fluorescence (linear units), - COLD (B7 antigen (human) [6]): 3.1 linear units
mean fluorescence (linear units), + COLD (B7 antigen (human) [7]): 2.8 linear units
mean fluorescence (linear units), + COLD (B7 antigen (human) [8]): 1.9 linear units
mean fluorescence (linear units), + COLD (B7 antigen (human) [9]): 3.1 linear units
mean fluorescence (linear units), - COLD (B7 antigen (human) [10]): 2.3 linear units
mean fluorescence (linear units), - COLD (B7 antigen (human) [11]): 3.8 linear units
mean fluorescence (linear units), - COLD (B7 antigen (human) [12]): 16.4 linear units
mean fluorescence (linear units), - COLD (B7 antigen (human) [13]): 13 linear units
SPECIFIC BINDING (mean fluorescence, linear units) (B7 antigen (human) [14]): 4.3 linear units
mean fluorescence (linear units), + COLD (B7 antigen (human) [15]): 4.3 linear units
SPECIFIC BINDING (mean fluorescence, linear units) (B7 antigen (human) [16]): 15 linear units
SPECIFIC BINDING (mean fluorescence, linear units) (B7 antigen (human) [17]): 10.6 linear units
mean fluorescence (linear units), - COLD (B7 antigen (human) [18]): 7.1 linear units
mean fluorescence (linear units), + COLD (B7 antigen (human) [19]): 2.4 linear units
percent of CD28-mediated adhesion blocked (B7 antigen (human) [20]): > 30%
mean fluorescence (linear units), + COLD (B7 antigen (human) [21]): 2.3 linear units
mean fluorescence (linear units), - COLD (B7 antigen (human) [22]): 17.8 linear units
SPECIFIC BINDING (mean fluorescence, linear units) (B7 antigen (human) [23]): 1.6 linear units
[3H]-T incorporation, PHA blasts stimulated with B7+ CHO (40:1), with BB-1 at 10 µg/ml (B7 antigen (human) [24]): 98300 cpm
mean fluorescence (linear units), + COLD (B7 antigen (human) [25]): 3 linear units
mean fluorescence (linear units), + COLD (B7 antigen (human) [26]): 3 linear units
mean fluorescence (linear units), + COLD (B7 antigen (human) [27]): 2.8 linear units
SPECIFIC BINDING (mean fluorescence, linear units) (B7 antigen (human) [28]): 13.4 linear units
SPECIFIC BINDING (mean fluorescence, linear units) (B7 antigen (human) [29]): 3.6 linear units
mean fluorescence (linear units), - COLD (B7 antigen (human) [30]): 4.5 linear units
percent of adhesion blocked (B7 antigen (human) [31]): 60%
mean fluorescence (linear units), + COLD (B7 antigen (human) [32]): 2.8 linear units
mean fluorescence (linear units), - COLD (B7 antigen (human) [33]): 6.4 linear units
mean fluorescence (linear units), - COLD (B7 antigen (human) [34]): 3.1 linear units
Substance: mAb BB-1 (anti-B7) (antibody)
